Data: the supplement of paper PMC7125110
± gives the standard error. This sample holds only a part of the variants without activity.

B1: glmS ribozyme (parent)
chain: AUAAAAGCGCCAGAACUACAGAAAUGUAGUUGACGAGGAGGAGGUUUAUCGAAUUUUCGGCGGAUGCCUCCAAA

Variants of: B1
Experiment: self-cleavage kobs at 10000 uM GlcN6P; higher = faster cleavage; RNA array
Details: with glucosamine-6-phosphate
Outline: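 E. coli RNA polymerase transcribed barcoded ribozyme variants in situ on sequenced MiSeq chips, which were tracked via a hybridised Cy3 probe at 37 °C. Tiles were imaged over ~14 h after glucosamine-6-phosphate (40 μM to 10 mM) in HEPES/KCl/Mg(OAc)2 buffer was flowed in. Normalised per-tile medians were fit to one- or two-exponential decays for kobs, and kcat and KM came from weighted Michaelis–Menten fits.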

Variant | self-cleavage kobs at 10000 uM GlcN6P [s⁻¹]
AUAAAAGCGCCGGAACUACAGAAAUGUAGUUGACGAGGCGGAGGUUUAUCGAAUUUUCGGCGGAUUCCUCCAAA | 6.62e-05 ± 1.8e-05
AUAAAAGCGCCUGGACUACAGAAAUGUAGUUGACGAGGAGAGGGUUUAUCGAAUUUUCGGCGGAUGCCUCCAAA | 0.000918 ± 0.0002
AUAAAAGCGCUAGAACUACAGAAAUGUAGUUGACGAGGAGGAGGUUAAUCGAAUUUUCGGCGGAUGCCACCAAA | 4.5e-05 ± 1.5e-05
AUAAAAGCGCCUGAACUACAGAAAUGUAGUUGACGAGGAGGGGGUUUAUCGAAUUUUGGGCGGAUGCCUCCAAA | 0.00079 ± 0.00015
AUAAAAGCGCCGGAACUACAGAAAUGUAGUUGACGAGGAGGCGGUUUAUCGAAUUUUCGGCGGAUGCCACCAAA | 0.000102 ± 1.5e-05
AUAAAAGCGCCGGCGCUACAGAAAUGUAGUUGACGAGGAGGAGGUUUAUCGAAUUUUCGGCGGAUGCCUCCAAA | 0.000141 ± 3e-05
AUAAAAGCGCCCGAACUACAGAAAUGUAGUUGACGAGGAGGAGGUUUAUCGAAUUUUCGGCUGAUGCCUCUAAA | < 1e-05
AUAAAAGCGCCCGAACUACAGAAAUGUAGUUGACGAGGUGGAGGUUUCUCGAAUUUUCGGCGGAUGCCUCCAAA | 4.14e-05 ± 1e-05
AUAAAAGCGCAAGAACUACAGAAAUGUAGUUGACGAGGAGGAGGUUUAUCGAAUUUUCGGCGGAUGCCGCGAAA | 4.63e-05 ± 1.5e-05
AUAAAAGCGCAAGAAGUACAGAAAUGUAGUUGACGAGGAGGAGGUUUAUCGAAUUUUUGGCGGAUGCAUCCAAA | 0.000263 ± 8.9e-05
AUAAAAGCGCUAGAACUACAGAAAUGUAGUGGACGAGGAGGAGGUUUAACGAAUUUUCGGCAGAUGCCUCCAAA | < 1e-05
AUAAAAGCGCGAGAACUACAGAAAUGUAGUUGACGAGGAGGAGGUUUAUCGAAUUUUCGGGGGAUGCCUCCAAA | < 1e-05
AUAAAAGCGCUAGAACUACAGAAAUGUAGUUGACGAGGAGGAGGUUUAUCGAAUUUUCGACGGAUGCGUCCAAA | 5.38e-05 ± 1.9e-05
AUAAAAGCGUCAGAACUACAGAAAUGUAGUUGACGAGGAGGAGGUUUAGCGAAUUUUGGGCGGAUGCCUCCAAA | < 1e-05
AUAAAAGCGCGAGAACUACAGAAAUGUAGUUGACGAGGAGGAGGUUUAUGGAAUUUUCGGCGGAUGCGUCUAAA | 8.16e-05 ± 1.7e-05
AUAAAAGCGCCUGAACUACAGAAAUGUAGUGGACGAGGAGGAGGUUUAUCGAAUCUUCGGCGGAAGCCUCCAAA | 0.0008 ± 0.00013
AUAAAAGCGCUGGUACUACAGAAAUGUAGUUGACGAGGAGGAGGUUUAUCGAAUUUUCGGCGGAUGCCUCCAAA | 0.000156 ± 3.3e-05
AUAAAAGCGCCCGAAUUACAGAAAUGUAGUUGACGAGGAGGAGGUUUAUCGACUUUUCGGCGAAUGCCUCCAAA | < 1e-05
AUAAAAGCGCAAGAACUACAGAAAUGUAGUUGACGAGGAGGAGGUUUAUCGGAUUUUCGGCGGAUGCCUCCAAA | 3.16e-05 ± 9.6e-06

Variant | self-cleavage kobs at 10000 uM GlcN6P [s⁻¹]
AUAAAAGCGCGAGAACUACAGAAAUGUAAUUGACGAGGAGUAGGUUUAUGGAAUUGUCGGCGGAUGUCUCCAAA | < 1e-05
AUAAAAGCGCGAGAACUACAGAAAUGUAUUUGAAGUUGAGGAGCUUUAUCGAAUUUUCGGCGGAUGCUUCCAAA | < 1e-05
AUAAAAGCGCCUGGACUACAGAAAUGUAGUUGACGAGGAGGAGGUUUAUCGAAUUUACGGCGGAUGCCUCCAAA | 0.000643 ± 0.00011
AUAAAAGCGCCUGAACUACAGAAAUGUAGUUGACGAGGAGGAUGUAUAUCGAAUUUUCGGCGGAUGCCUCCAAA | 4.1e-05 ± 1.8e-05
AUAAAAGCGCCGGUACUACAGAAAUGUAGUUGACGAGGAGGAGGUUUAUCGAAUUUUAGGCGGAUGCCUCCAAA | 0.000276 ± 5.2e-05
AUAAAAGCGCCGGAACUACAGAAAUGUAGUUGACGAGGAGGGGGUUUAUCGGAUUUUCGGCGGAUGCCUCCAAA | 2.4e-05 ± 1.2e-05
AUAAAAGCGCGAGAACUACAGAAAUGUAGUUGACGCCGAGGAGGUGUAUCGAAUUUUCGACGGAUGCCUCCAAA | < 1e-05
AUAAAAGCGCCUGAACUACAGAAAUGUAGUUGACGAGGAGGAGGUGUGUCGAAUUUUCGGCGGAUGCCUCCAAA | 9.42e-05 ± 2.1e-05
AUAAAAGCGCCUGAACUACAGAAAUGUACUUGACGAGGAGGAGGUAUAUCGAAUUUUCGGCGGAUGCCUCCAAA | 0.000658 ± 0.00018
AUAAAAGCGCCGGAACUACAGAAAUGUAGUUGACGAGGAGGAGGUUUAUCGAAUUUUCGGCGCAUGCCUUCAAA | < 1e-05
AUAAAAGCGCUAGAACUACAGAAAUGUAGUUGACGAGGAGGAGGUUUAUCGAAUUUCCGGCGGAUGCCUCCAAA | 5.06e-05 ± 1.6e-05
AUAAAAGCGCGAUAACUACAGAAAUGUAGUUGACGACGAGGAGGUUUAUCGAAUUUUCGGCGGAUGCCUCCAAA | < 1e-05
AUAAAAGCGCAAGAACUACAGAAAUGUAGUUGACGAGGAGGAGGUUUAUCGAAUACUCGGCGGAUGCCUCCAAA | 2.5e-05 ± 1.1e-05
AUAAAAGCGCCCGAACUACAGAAAUGUAGUUGACGAGGAGGAGGUUUAACGAAUUUUCGGCGGAUCCCUCUAAA | < 1e-05
AUAAAAGCGCAAGAGCUACAGAAAUGUAGUUGACGAGGAGGAGGUUUAUCGAAUUUACGGCUGAUGCCUCCAAA | < 1e-05
AUAAAAGCGCCGGAACUACAGAAAUGUAGUUGACGAGGAGGAGGUUUAUCGAAUUUUAGGCGGAUGCCUGCAAA | 3.02e-05 ± 1.3e-05
AUAAAAGCGCCGGAACUACAGAAAUGUAGUUGACGAGGAGGAGGUAUAUCGAAUUUUCGGCGGAUGCCUCGAAA | 3.42e-05 ± 1.3e-05
AUAAAAGCGCAAGAACUACAGAAAUGUAGUUGACGAGGAGGAGGUUUGUAGAAUUUUCGGCGGAUGCCUACAAA | 5.38e-05 ± 1.9e-05
